{"source": "patent US8158585B2", "about": "“Cross-β structure comprising amyloid-binding proteins and methods for detection of the cross-β structure, for modulating cross-β structures fiber formation and modulating cross-β structure-mediated toxicity” (CrossBeta Biosciences B.V., priority 2002, dated 2012)", "molecules": {"B1": {"name": "tPA F-EGF-GST: tPA F-EGF domains with C-terminal GST tag, expressed in BHK cells and purified (protein)", "chain": "SYQVICRDEKTQMIYQQHQSWLRPVLRSNRVEYCWCNSGRAQCHSVPVKSCSEPRCFNGGTCQQALYFSDFVCQCPEGFAGKCCEID", "modifications": "left off: small tags and cut ends; a dimerising Fc or GST", "notes": "tPA F-EGF domains with C-terminal GST tag, expressed in BHK cells and purified"}, "B2": {"name": "CpB: porcine pancreas carboxypeptidase B from Roche (protein, UniProt P09955 111-416, looked up)", "Carboxypeptidase B": "TTGHSYEKYNNWETIEAWTKQVTSENPDLISRTAIGTTFLGNNIYLLKVGKPGPNKPAIFMDCGFHAREWISHAFCQWFVREAVLTYGYESHMTEFLNKLDFYVLPVLNIDGYIYTWTKNRMWRKTRSTNAGTTCIGTDPNRNFDAGWCTTGASTDPCDETYCGSAAESEKETKALADFIRNNLSSIKAYLTIHSYSQMILYPYSYDYKLPENNAELNNLAKAAVKELATLYGTKYTYGPGATTIYPAAGGSDDWAYDQGIKYSFTFELRDKGRYGFILPESQIQATCEETMLAIKYVTNYVLGHL"}}, "key": {"[1]": {"assay": "Circular dichroism: percentage β-sheet (k2d software)", "format": "physicochemical", "protocol": "UV circular dichroism (CD) spectra of peptide and protein solutions ([…] in H2O) were measured on a JASCO J-810 CD spectropolarimeter (Tokyo, Japan). Averaged absorption spectra of five or ten single measurements from 190-240 nm or from 190-250 nm, for fibrin peptides 85, 86, 87 or for albumin, glycated albumin and human Aβ (16-22), respectively, are recorded. The CD spectrum of Aβ (16-22) was measured as a positive control. Aβ (16-22) readily adopts amyloid fiber conformation with cross-β structure when incubated in H2O^45. For albumin and Aβ (16-22), relative percentage of the secondary structure elements present was estimated using k2d software.^48"}, "tPA [2]": {"target": "T1, tPA (Homo sapiens, UniProt P00750)", "T1 construct": "purchased Boehringer-Ingelheim (Germany)", "T1 sequence (P00750 36-562)": "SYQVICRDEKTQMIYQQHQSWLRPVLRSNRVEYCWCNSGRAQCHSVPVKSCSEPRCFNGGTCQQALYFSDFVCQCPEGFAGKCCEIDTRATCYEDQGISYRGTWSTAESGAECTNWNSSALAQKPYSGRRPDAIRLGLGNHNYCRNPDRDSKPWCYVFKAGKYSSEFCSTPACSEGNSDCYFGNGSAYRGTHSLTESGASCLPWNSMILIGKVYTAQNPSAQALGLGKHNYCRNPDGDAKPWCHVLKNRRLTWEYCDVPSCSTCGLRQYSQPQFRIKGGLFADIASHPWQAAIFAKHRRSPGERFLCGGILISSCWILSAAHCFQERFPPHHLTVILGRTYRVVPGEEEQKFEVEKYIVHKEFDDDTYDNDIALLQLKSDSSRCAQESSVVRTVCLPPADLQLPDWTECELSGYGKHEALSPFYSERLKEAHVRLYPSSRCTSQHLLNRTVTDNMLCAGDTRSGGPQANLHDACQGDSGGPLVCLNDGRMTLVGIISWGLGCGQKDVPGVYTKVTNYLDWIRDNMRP", "assay": "ELISA: binding of tPA to glycated albumin and Hb", "conditions": "g6p-glycated protein immobilized", "protocol": "Binding of tPA to albumin-g6p (four-week and 23-week incubations), albumin-glyceraldehyde, control albumin, human Hb-g6p (ten-week incubation), Hb control, or to Aβ (1-40) was tested using an enzyme-linked immunosorbent assay (ELISA) set-up. Albumin-g6p and control albumin (2.5 μg ml^−1 in coat buffer, 50 mM Na2CO3/NaHCO3 pH 9.6, 0.02% m/v NaN3, 50 μl/well) were immobilized for one hour at room temperature in 96-well protein Immobilizer plates (Exiqon, Vedbaek, Denmark). Aβ (1-40) (10 μg ml^−1 in coat buffer) was immobilized for 75 minutes at room temperature in a 96-well peptide Immobilizer plate (Exiqon, Vedbaek, Denmark). Control wells were incubated with coat buffer only. After a wash step with 200 μl of PBS/0.1% v/v Tween 20, plates were blocked with 300 μl of PBS/1% v/v Tween 20, for two hours at room temperature while shaking. All subsequent incubations were performed in PBS/0.1% v/v Tween 20 for one hour at room temperature while shaking, with volumes of 50 μl per well. After each incubation, wells were washed five times with 200 μl of PBS/0.1% v/v Tween 20. Increasing amounts of f.l. tPA or K2-P tPA was added in triplicate to coated wells and to control wells. […] Absorbance was read at 490 nm on a Vmax kinetic microplate reader (Molecular Devices, Sunnyvale, Calif., USA)."}, "tPA [3]": {"target": "T1, tPA", "assay": "ELISA: binding of tPA to 86-week glycated albumin-AGE preparations", "conditions": "albumin incubated 86 weeks; 10 mM εACA", "protocol": "Binding of the cross-B structure marker tPA to albumin-AGE was tested using an ELISA setup. […] Therefore, we used tPA binding to these two peptides as positive control. The 86-week glycated samples and controls were coated to Greiner microlon plates (catalogue #655092, Greiner, Frickenhausen, Germany). Wells were blocked with Superblock (Pierce, Rockford, Ill., USA). All subsequent incubations were performed in PBS/0.1% (v/v) Tween 20 for one hour at room temperature while shaking, with volumes of 50 μl per well. After incubation, wells were washed five times with 300 μl PBS/0.1% (v/v) Tween 20. Increasing concentrations of tPA were added in triplicate to coated wells as well as to control wells. During tPA incubations of 86-week incubated samples, at least a 123,000 times molar excess of ε-amino caproic acid (εACA, 10 mM) was added to the solutions. εACA is a lysine analogue and is used to avoid potential binding of tPA to albumin via its kringle 2 domain.^50 Monoclonal antibody 374b (American Diagnostica, Instrumentation laboratory, Breda, The Netherlands) and, subsequently, RAMPO (Dako diagnostics, Glostrup, Denmark) was added to the wells at a concentration of 0.3 μg ml^−1. Bound peroxidase-labeled antibody was visualized using 100 μl of a solution containing 8 mg ortho-phenylene-diamine in 20 ml 50 mM citric acid/100 mM Na2HPO4 pH 5.0 with 0.0175% (v/v) H2O2. Staining was stopped upon adding 50 μl of a 2 M H2SO4 solution. Absorbance was read at 490 nm on a Vmax kinetic microplate reader (Molecular Devices, CA, USA). Background signals from non-coated control wells were substracted from corresponding coated wells."}, "[4]": {"test_system": "amyloid deposits in human brain inflicted by AD", "assay": "Immunohistochemistry: binding of tPA F-EGF to human AD brain", "conditions": "7 nM construct; Congo red fluorescence to locate amyloid", "protocol": "Paraffin brain sections of a human inflicted with AD was a kind gift of Prof. Slootweg (Dept. of Pathology, UMC Utrecht). Sections were deparaffinized in a series of xylene-ethanol. Endogenous peroxidases were blocked with methanol/1.5% H2O2 for 15 minutes. After rinsing in H2O, sections were incubated with undiluted formic acid for ten minutes, followed by incubation in PBS for five minutes. Sections were blocked in 10% HPS in PBS for 15 minutes. Sections were exposed for two hours with 7 nM of tPA F-EGF-GST or GST in PBS/0.3% BSA. After three wash steps with PBS, sections were overlayed with 200 ng ml^−1 anti-GST antibody Z-5, for one hour. After washing, ready-to-use goat anti-rabbit Powervision (Immunologic, Duiven, The Netherlands, catalogue #DPVR-55AP) was applied and incubated for one hour. After washing, sections were stained for ten minutes with 3,3′-diamino benzidine (Sigma-Aldrich, St Louis, Mo., USA, catalogue #D-5905), followed by hematoxylin staining for ten seconds. After washing with H2O, sections were incubated with Congo red according to the manufacturer's recommendations (Sigma Diagnostics, St Louis, Mo., USA). […] Analysis of sections was performed on a Leica DMIRBE fluorescence microscope (Rijswijk, The Netherlands). Fluorescence of Congo red was analyzed using an excitation wavelength of 596 nm and an emission wavelength of 620 nm."}, "mΔIAPP": {"target": "T2, mΔIAPP (Mus musculus, UniProt P12968)", "T2 construct": "purchased Pepscan, Inc. or peptide synthesis facility of the Netherlands Cancer Institute; host or cells: chemical synthesis", "assay": "Amyloid ELISA with tPA F-EGF-GST: non-amyloid control", "format": "binding", "protocol": "In order to define the affinity of the purified tPA F-EGF-GST recombinant protein, ELISAs were performed with immobilized amyloid (poly)peptides and non-amyloid control ΔmIAPP. Twenty-five μg ml^−1 of Aβ, FP13, IAPP or ΔmIAPP was immobilized on Exiqon peptide immobilizer plates. A concentration series of tPA F-EGF-GST in the presence of excess εACA was added to the wells and binding was assayed using anti-GST antibody Z-5. As a control, GST (Sigma-Aldrich, St. Louis, Mo., USA, catalogue #G-5663) was used at the same concentrations."}, "Aβ fibrils": {"target": "T3, Aβ fibrils (Homo sapiens, UniProt P05067)", "T3 construct": "Peptide Aβ (1-40), containing amino acids as present in the described human Alzheimer peptide; purchased Pepscan, Inc. (The Netherlands) or peptide synthesis facility at the Netherlands Cancer Institute; host or cells: synthetic peptide", "T3 sequence (P05067 672-711)": "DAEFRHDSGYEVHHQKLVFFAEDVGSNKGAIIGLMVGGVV", "assay": "Amyloid pull-down with insoluble Aβ fibers", "format": "binding", "conditions": "conditioned BHK medium", "protocol": "Conditioned medium of BHK cells expressing GST-tagged tPA F, F-EGF, EGF, K1, F-EGF-K1, FXII F, HGFa F, Fn F4, Fn F5, Fn F4-5 and GST was used for amyloid binding assays. At first, constructs were adjusted to approximately equal concentration using Western blots. Qualitative binding of the recombinant fragments were evaluated using a “pull-down” assay. To this end, the recombinantly made fragments were incubated with either Aβ or IAPP fibrils. Since these peptides form insoluble fibers, unbound proteins can be easily removed from the fibers following centrifugation. The pellets containing the bound fragments were subsequently washed several times. Bound fragments were solubilized in SDS-sample buffer and analyzed by PAGE, as were unbound proteins in the supernatant fraction and starting material. The gels were analyzed using immunoblotting analysis with the anti-GST antibody Z-5."}, "[5]": {"target": "T4, tPA-mediated plasminogen activation (Homo sapiens, UniProt P00750)", "T4 construct": "purchased Boehringer-Ingelheim (Germany)", "T4 sequence (P00750 36-562)": "as the sequence (P00750 36-562) above", "assay": "Plasminogen activation assay", "format": "biochemical", "conditions": "50 μg ml−1 CpB, 5 μM Aβ", "protocol": "Plasminogen (200 μg ml^−1) was incubated with tPA (200 pM) in the presence or the absence of a co-factor (5 μM of either endostatin, Aβ (1-40), or one the fibrin-derived peptides 85, 86 and 87). At the indicated time intervals, samples were taken and the reaction was stopped in a buffer containing 5 mM EDTA and 150 mM εACA. After collection of the samples, a chromogenic plasmin substrate S-2251 was added and plasmin activity was determined kinetically in a spectrophotometer at 37° C."}, "[6]": {"test_system": "differentiated N1E-115 cells", "assay": "N1E-115 cell detachment (methylene blue staining)", "format": "cell-based, mouse", "conditions": "Aβ 10 μM, plasminogen 20 μg ml−1, CpB 1 μM, 24 hours", "protocol": "FIG. 4 is a set of graphs illustrating stimulation of tPA-mediated plasmin formation by Aβ and synergistic stimulation of cell detachment by plasminogen and Aβ. Panel A depicts that plasminogen (200 μg/ml) and tPA (200 pM) were incubated with Aβ (5 μM) or control buffer. Samples were taken from the reaction mixture at the indicated periods of time and plasmin activity was measured by conversion of the chromogenic plasmin substrate S-2251 at 405 nm. […] After 48 hours, the dead cells were washed away and the remaining adherent cells were stained with methylene blue. Plasmin cannot prevent Aβ-induced cell detachment. Panel C illustrates that N1E-115 cells were differentiated and received the indicated concentrations of plasminogen in the presence or absence of 10 μM Aβ. After 24 hours, cell detachment was assessed. […] Panel D is an immunoblot analysis of plasmin formation and laminin degradation. Differentiated N1E-115 cells were treated with or without Aβ (10 μM) in the absence or presence of added plasminogen. Addition of Aβ results in the formation of plasmin (bottom panel) and in degradation of laminin (top panel).\n(§1) FIG. 5 depicts graphs illustrating that carboxypeptidase B inhibits Aβ-stimulated tPA-mediated plasmin formation and cell detachment. […] Samples were taken from the reaction mixture at the indicated periods of time and plasmin activity was measured by conversion of the chromogenic plasmin substrate S-2251 at 405 nm. The reaction was performed in the absence or the presence of 50 μg ml^−1 carboxypeptidase B (CpB) and in the absence or presence of 3.5 μM carboxypeptidase inhibitor (CPI). CpB greatly attenuates A-stimulated plasmin formation. […] After 24 hours, the cells were photographed. Panel C illustrates that, subsequently, the cells were washed once with PBS and the remaining cells were quantified as percentage-adhered cells by methylene blue staining. In Panel D, the cells were treated as in Panels B and C and medium and cell fractions were collected and analyzed by Western blot using an anti-plasmin(ogen) antibody. Aβ stimulates plasmin formation that is inhibited by CpB.\nN1E-115 mouse neuroblastoma cells were routinely cultured in DMEM containing 5% FCS, supplemented with antibiotics. Cells were differentiated into post-mitotic neurons.^52 The cells were exposed to Aβ (50 μg ml^−1) for 24 hours in the presence or absence of 20 μg ml^−1 plasminogen in the presence or absence of 50 μg ml^−1 CpB. Cells were photographed, counted and lysed by the addition of 4× sample buffer (250 mM Tris pH 6.8, 8% SDS, 10% glycerol, 100 mM DTT, 0.01% w/v bromophenol blue) to the medium. The lysate, containing both adherent and floating (presumably dying and/or dead) cells, as well as the culture medium, were analyzed for the presence of plasminogen and plasmin, as well as for laminin, by Western blot analysis using specific antibodies against plasminogen (MoAb 3642, American Diagnostics), laminin (PoAb L9393, Sigma)."}, "[7]": {"test_system": "Aβ-stimulated plasmin formation in N1E-115 cells", "assay": "Western blot of plasmin formation in N1E-115 cultures", "format": "cell-based, mouse", "conditions": "co-incubation with CpB", "protocol": "as §1\nN1E-115 mouse neuroblastoma cells were routinely cultured in DMEM containing 5% FCS, supplemented with antibiotics. […] Cells were photographed, counted and lysed by the addition of 4× sample buffer (250 mM Tris pH 6.8, 8% SDS, 10% glycerol, 100 mM DTT, 0.01% w/v bromophenol blue) to the medium. […]"}}}
{"molecule": "Albumin-g6p", "values": [{"measurement": "β-sheet (%)", "setting": "[1]; incubation time 2 weeks", "result": 0, "unit": "%"}, {"measurement": "β-sheet (%)", "setting": "[1]; incubation time 4 weeks", "result": 7, "unit": "%"}, {"measurement": "β-sheet (%)", "setting": "[1]; incubation time 23 weeks", "result": 19, "unit": "%"}, {"measurement": "tPA binding", "setting": "tPA [2]", "result": "high-affinity tPA binding"}, {"measurement": "binding of amyloid-specific serine protease tPA", "setting": "tPA [3]", "result": "bound specifically"}]}
{"molecule": "B1", "values": [{"measurement": "binding to amyloid deposits in AD brain sections", "setting": "[4]", "result": "positive for tPA F-EGF-GST binding"}, {"measurement": "binding to non-amyloid mΔIAPP", "setting": "mΔIAPP", "result": "No binding"}, {"measurement": "binding to Aβ fibers (pull-down, Western blot)", "setting": "Aβ fibrils", "result": "Efficient binding"}]}
{"molecule": "B2", "values": [{"measurement": "Aβ-stimulated generation of plasmin in the presence of CpB", "setting": "[5]", "result": "greatly diminished"}, {"measurement": "cell detachment induced by plasminogen and Aβ", "setting": "[6]", "result": "completely prevented"}, {"measurement": "Aβ-stimulated plasmin formation in the medium and on the cells", "setting": "[7]", "result": "complete inhibition"}]}
